The values that follow come from patent US20100036095A1.

This test deals with C8/C9 (complement components C8 and C9 of normal human serum, in the assembling membrane attack complex) (human), P07357. In words: cell-based or functional assay.
Chain of C8/C9 (complement components C8 and C9 of normal human serum, in the assembling membrane attack complex) (human), P07357 (P07357 31-584 limits assumed, chain 1 of 4): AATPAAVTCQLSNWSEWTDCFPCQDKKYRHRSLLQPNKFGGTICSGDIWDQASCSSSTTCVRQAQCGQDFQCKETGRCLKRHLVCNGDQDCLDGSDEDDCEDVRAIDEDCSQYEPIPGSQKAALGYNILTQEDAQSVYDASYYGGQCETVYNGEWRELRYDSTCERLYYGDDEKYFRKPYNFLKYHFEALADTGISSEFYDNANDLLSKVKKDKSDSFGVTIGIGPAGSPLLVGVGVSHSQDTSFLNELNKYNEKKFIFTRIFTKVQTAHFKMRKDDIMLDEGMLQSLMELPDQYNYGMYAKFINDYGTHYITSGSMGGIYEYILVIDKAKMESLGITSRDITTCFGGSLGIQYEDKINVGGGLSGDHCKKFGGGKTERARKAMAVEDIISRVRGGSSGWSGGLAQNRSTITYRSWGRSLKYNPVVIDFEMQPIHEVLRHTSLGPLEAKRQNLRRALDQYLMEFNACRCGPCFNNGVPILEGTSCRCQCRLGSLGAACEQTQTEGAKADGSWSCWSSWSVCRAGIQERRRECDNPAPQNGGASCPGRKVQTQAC
Chain of C8/C9 (complement components C8 and C9 of normal human serum, in the assembling membrane attack complex) (human), P07357 (P07358 55-591 limits assumed, chain 2 of 4, further chain): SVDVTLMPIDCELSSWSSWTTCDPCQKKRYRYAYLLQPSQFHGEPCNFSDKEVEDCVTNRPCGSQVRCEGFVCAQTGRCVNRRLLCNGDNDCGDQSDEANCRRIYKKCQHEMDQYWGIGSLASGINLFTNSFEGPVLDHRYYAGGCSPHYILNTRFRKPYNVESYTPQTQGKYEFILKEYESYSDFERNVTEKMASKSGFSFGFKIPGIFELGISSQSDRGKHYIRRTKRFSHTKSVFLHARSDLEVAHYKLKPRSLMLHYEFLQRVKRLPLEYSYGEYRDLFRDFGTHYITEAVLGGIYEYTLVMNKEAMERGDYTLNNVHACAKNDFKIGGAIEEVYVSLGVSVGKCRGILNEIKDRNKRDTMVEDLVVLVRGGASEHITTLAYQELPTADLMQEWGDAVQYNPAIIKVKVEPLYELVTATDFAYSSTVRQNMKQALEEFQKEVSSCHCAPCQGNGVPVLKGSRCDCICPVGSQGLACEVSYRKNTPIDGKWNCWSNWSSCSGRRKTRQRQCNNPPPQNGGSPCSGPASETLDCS
Chain of C8/C9 (complement components C8 and C9 of normal human serum, in the assembling membrane attack complex) (human), P07357 (P07360 21-202 limits assumed, chain 3 of 4, further chain): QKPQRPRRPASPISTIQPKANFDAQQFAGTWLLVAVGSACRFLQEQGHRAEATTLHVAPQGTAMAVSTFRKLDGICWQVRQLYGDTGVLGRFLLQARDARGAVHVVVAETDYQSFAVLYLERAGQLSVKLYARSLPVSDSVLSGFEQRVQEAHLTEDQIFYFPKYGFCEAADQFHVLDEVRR
Chain of C8/C9 (complement components C8 and C9 of normal human serum, in the assembling membrane attack complex) (human), P07357 (P02748 22-559 limits assumed, chain 4 of 4, further chain): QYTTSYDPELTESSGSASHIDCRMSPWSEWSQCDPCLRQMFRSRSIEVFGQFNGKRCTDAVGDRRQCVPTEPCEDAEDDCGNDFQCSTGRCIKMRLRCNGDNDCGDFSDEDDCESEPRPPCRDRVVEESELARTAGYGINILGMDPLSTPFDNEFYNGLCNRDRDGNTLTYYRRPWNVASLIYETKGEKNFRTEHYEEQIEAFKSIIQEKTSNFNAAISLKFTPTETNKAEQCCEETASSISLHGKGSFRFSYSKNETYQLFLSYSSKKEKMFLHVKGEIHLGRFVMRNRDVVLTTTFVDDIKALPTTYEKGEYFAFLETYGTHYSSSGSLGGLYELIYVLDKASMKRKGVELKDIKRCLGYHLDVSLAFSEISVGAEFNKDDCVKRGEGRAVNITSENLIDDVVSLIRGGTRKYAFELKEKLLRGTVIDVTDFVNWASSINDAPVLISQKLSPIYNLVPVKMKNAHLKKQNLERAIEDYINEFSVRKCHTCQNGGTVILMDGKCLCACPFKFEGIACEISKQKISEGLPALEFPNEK

B1: CR2-CD59 fusion protein containing CD59 T51A/S20A (protein)
chain: ISCGSPPPILNGRISYYSTPIAVGTVIRYSCSGTFRLIGEKSLLCITKDKVDGTWDKPAPKCEYFNKYSSCPEPIVPGGYKIRGSTPYRHGDSVTFACKTNFSMNGNKSVWCQANNMWGPTRLPTCVSVFPLECPALPMIHNGHHTSENVGSIAPGLSVTYSCESGYLLVGEKIINCLSSGKWSAVPPTCEEARCKSLGRFPNGKVKEPPILRVGVTANFFCDEGYRLQGPPSSRCVIAGQGVAWTKMPVCSGGGGSLQCYNCPNPTADCKTAVNCSADFDACLITKAGLQVYNKCWKFEHCNFNDVATRLRENELTYYCCKKDLCNFNEQLEN
As for B1, the inhibition of complement-mediated lysis of sensitized CHO cells by soluble protein in normal human serum (fold of wt CR2-CD59) was 3.
